# According to patent US6858210B1, “Therapeutic and diagnostic domain 1 β2GPI polypeptides and methods of using same” (La Jolla Pharmaceutical Co., priority 1998, dated 2005):
# Like-named read-outs stand apart in the source and are kept apart here.
# B1: -2345: recombinant β2GPI deletion mutant with domains 2-5 (protein)
# chain: GRTPRVCPFAGILENGAVRYTTFEYPNTISFSCNTGFYLNGADSAKCTEEGKWSPELPVCAPIICPPPSIPTFATLRVYKPSAGNNSLYRDTAVFECLPQHAMFGNDTITCTTHGNWTKLPECREVKCPFPSRPDNGFVNYPAKPTLYYKDKATFGCHDGYSLDGPEEIECTKLGNWSAMPSCKASCKLPVKKATVVYQGERVKIQEKFKNGMLHGDKVSFFCKNKEKKCSYTEDAQCIDGTIEVPKCFKEHSSLAFWKTDASDVKPCGHHHHHH
# Tests used:
# [1] = test system: affinity purified β2GPI-dependent antiphospholipid antibody; experiment: Competitive inhibition ELISA: recombinant β2GPI proteins compete for antibody binding to coated full length recombinant β2GPI; set-up: species or system human; conditions: for IC50: read-out: 50% (concentration to give 50% inhibition)
# In short: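 Wells coated with full-length recombinant β2GPI (10 μg/ml, pH 9.5) and milk-blocked. Serially diluted recombinant β2GPI proteins were co-incubated with a fixed concentration of patient antibody for 1 h at 37 °C. Bound IgG detected with alkaline phosphatase anti-human IgG at OD550; percent inhibition is background-corrected against inhibitor-free wells.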
# [2] = test system: affinity purified β2GPI-dependent antiphospholipid antibody; experiment: Direct binding ELISA, nickel chelate-coated wells charged with recombinant β2GPI proteins (no cardiolipin); set-up: species or system human; conditions: O.D. at 550 nm
# In short: (§1)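 His-tagged recombinant β2GPI mutants captured on nickel chelate wells in serial dilution (2 h, room temperature), no anionic phospholipid; GST-6his as negative control. Affinity-purified patient antibodies (11 patients) or rabbit anti-β2GPI detected by alkaline phosphatase anti-IgG, OD 550 nm.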
# [3] = test system: rabbit anti-β2GPI; experiment: Direct binding ELISA, nickel chelate-coated wells, rabbit antibody; conditions: O.D. at 550 nm
# In short: as §1
molecule,measurement,setting,value
B1,Max (maximum inhibition observed at concentrations tested),[1]; Ab 6203,10%
same,IC50,[1]; Ab 6203,> 57 µM
same,Max (maximum inhibition observed at concentrations tested),[1]; Ab 6501,20%
same,IC50,[1]; Ab 6501,> 57 µM
same,Max (maximum inhibition observed at concentrations tested),[1]; Ab 6509,20%
same,IC50,[1]; Ab 6509,> 16 µM
same,Max (maximum inhibition observed at concentrations tested),[1]; Ab 6626,18%
same,IC50,[1]; Ab 6626,> 57 µM
same,Max (maximum inhibition observed at concentrations tested),[1]; Ab 6632,20%
same,IC50,[1]; Ab 6632,> 57 µM
same,Max (maximum inhibition observed at concentrations tested),[1]; Ab 6641,20%
same,IC50,[1]; Ab 6641,> 16 µM
same,Max (maximum inhibition observed at concentrations tested),[1]; Ab 6644,10%
same,IC50,[1]; Ab 6644,> 57 µM
same,Max (maximum inhibition observed at concentrations tested),[1]; Ab 6652,40%
same,IC50,[1]; Ab 6652,> 16 µM
same,Max (maximum inhibition observed at concentrations tested),[1]; Ab 6701,10%
same,IC50,[1]; Ab 6701,> 16 µM
same,Max (maximum inhibition observed at concentrations tested),[1]; Ab 7008,20%
same,IC50,[1]; Ab 7008,> 57 µM
same,Max (maximum inhibition observed at concentrations tested),[1]; Ab 7015,10%
same,IC50,[1]; Ab 7015,> 57 µM
same,Max (maximum inhibition observed at concentrations tested),[1]; Ab 7101,5%
same,IC50,[1]; Ab 7101,> 57 µM
same,Max (maximum inhibition observed at concentrations tested),[1]; Ab 7104,10%
same,IC50,[1]; Ab 7104,> 57 µM
same,Maximum O.D.,[2]; Ab 6203,0.074
same,Maximum O.D.,[2]; Ab 6501,0.018
same,Maximum O.D.,[2]; Ab 6626,0.008
same,Maximum O.D.,[2]; Ab 6632,0.031
same,Maximum O.D.,[2]; Ab 6641,0.045
same,Maximum O.D.,[2]; Ab 6644,0.041
same,Maximum O.D.,[2]; Ab 6652,0.008
same,Maximum O.D.,[2]; Ab 6701,0.002
same,Maximum O.D.,[2]; Ab 7008,0.019
same,Maximum O.D.,[2]; Ab 7015,0.114
same,Maximum O.D.,[2]; Ab 7101,0.056
same,Maximum O.D.,[3],1.873
